The chains are these.
T1: EsCas13d, nuclease-dead (Eubacterium siraeum, UniProt B0MS50, R295A;H300A;R849A;H854A)
T1 sequence: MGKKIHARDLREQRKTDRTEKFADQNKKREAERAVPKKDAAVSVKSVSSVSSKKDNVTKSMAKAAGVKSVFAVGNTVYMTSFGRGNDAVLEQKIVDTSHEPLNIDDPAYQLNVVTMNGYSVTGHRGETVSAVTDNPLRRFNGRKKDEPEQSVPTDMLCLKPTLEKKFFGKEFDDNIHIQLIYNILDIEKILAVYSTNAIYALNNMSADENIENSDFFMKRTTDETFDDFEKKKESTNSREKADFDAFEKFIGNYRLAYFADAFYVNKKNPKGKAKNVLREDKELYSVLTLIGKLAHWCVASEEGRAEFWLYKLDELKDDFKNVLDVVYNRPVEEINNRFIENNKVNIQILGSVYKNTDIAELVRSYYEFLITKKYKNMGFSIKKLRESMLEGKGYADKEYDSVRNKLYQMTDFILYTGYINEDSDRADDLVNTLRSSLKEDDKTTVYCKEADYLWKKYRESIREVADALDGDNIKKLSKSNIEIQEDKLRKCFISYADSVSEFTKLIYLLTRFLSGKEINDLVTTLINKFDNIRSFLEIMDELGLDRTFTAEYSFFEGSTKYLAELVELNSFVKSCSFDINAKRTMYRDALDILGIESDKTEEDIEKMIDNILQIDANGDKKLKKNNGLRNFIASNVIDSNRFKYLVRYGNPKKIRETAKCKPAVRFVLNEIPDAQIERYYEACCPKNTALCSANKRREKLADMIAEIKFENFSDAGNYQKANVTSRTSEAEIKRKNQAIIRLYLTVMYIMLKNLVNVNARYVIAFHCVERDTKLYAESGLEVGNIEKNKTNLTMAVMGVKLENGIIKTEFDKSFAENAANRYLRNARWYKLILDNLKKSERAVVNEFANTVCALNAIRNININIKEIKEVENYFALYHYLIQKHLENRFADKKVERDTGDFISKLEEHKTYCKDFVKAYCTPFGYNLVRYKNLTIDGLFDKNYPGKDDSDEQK

B1: target 1 C6G,U19C (mixed)
RNA 1: CACCCGUGCAAAAAUGCAGGGGUCUAAAACUGAGCGGAUAACCUCUCUAUGG
RNA 2: GGGAAUGGAUCCACAUCUACGAAUUCGUACCACAGAGAGGUUAUCGGCUCACCGAGAUCGGAAGAGCACACGU
B2: target 1 A9U (mixed)
RNA 1: B1 RNA 1
RNA 2: B1 RNA 2 with C33U, A43U, G46C
B3: target 1 insG 3' of 9,insA 3' of 5 (mixed)
RNA 1: B1 RNA 1
RNA 2: GGGAAUGGAUCCACAUCUACGAAUUCGUACCAUAGAGAGGUUAGUCCGACUCACCGAGAUCGGAAGAGCACACGU
B4: target 1 insA 3' of 13,insC 3' of 12 (mixed)
RNA 1: B1 RNA 1
RNA 2: B3 RNA 2 with G40A, U41G, U42C, A43U, G44U, U45A, C46U, G48C, A49G
B5: target 1 A1G,A9U (mixed)
RNA 1: B1 RNA 1
RNA 2: B1 RNA 2 with C33U, A43U, G46C, A51G
B6: target 1 C6G,U11C (mixed)
RNA 1: B1 RNA 1
RNA 2: B1 RNA 2 with C33U, U41C
B7: target 1 A1U,A9U (mixed)
RNA 1: B1 RNA 1
RNA 2: B1 RNA 2 with C33U, A43U, G46C, A51U
B8: non-target control (mixed)
RNA 1: B1 RNA 1
RNA 2: GGGAAUGGAUCCACAUCUACGAAUUCGUUAGCUAGAAGGGGAAGUUGGUUAUGGAGAUCGGAAGAGCACACGU
B9: target 1 insA 3' of 15,insC 3' of 8 (mixed)
RNA 1: B1 RNA 1
RNA 2: B3 RNA 2 with G39A, U41G, A43U, G44A, G48C, A49G
B10: target 1 insG 3' of 11,insA 3' of 11 (mixed)
RNA 1: B1 RNA 1
RNA 2: B3 RNA 2 with U42G, G44U, U45A, C46U, G48C, A49G
B11: target 1 insC 3' of 12,insA 3' of 11 (mixed)
RNA 1: B1 RNA 1
RNA 2: B3 RNA 2 with U41C, G44U, U45A, C46U, G48C, A49G
B12: target 1 C4U,U8C (mixed)
RNA 1: B1 RNA 1
RNA 2: B1 RNA 2 with C33U, U44C, G46C, C48U
B13: target 1 U11A (mixed)
RNA 1: B1 RNA 1
RNA 2: B1 RNA 2 with C33U, U41A, G46C
B14: target 1 insC 3' of 22,insC 3' of 10 (mixed)
RNA 1: B1 RNA 1
RNA 2: GGGAAUGGAUCCACAUCUACGAAUUCGUACCCAUAGAGAGGUUCAUCCGCUCACCGAGAUCGGAAGAGCACACGU
B15: target 1 U8A,C22U (mixed)
RNA 1: B1 RNA 1
RNA 2: B1 RNA 2 with C30U, C33U, U44A, G46C
B16: target 1 A9U,G12A (mixed)
RNA 1: B1 RNA 1
RNA 2: B1 RNA 2 with C33U, G40A, A43U, G46C
B17: target 1 insG 3' of 22,insA 3' of 8 (mixed)
RNA 1: B1 RNA 1
RNA 2: B14 RNA 2 with C31G, C44A, A45U, U46A
B18: target 1 C2U,C4A (mixed)
RNA 1: B1 RNA 1
RNA 2: B1 RNA 2 with C33U, G46C, C48A, C50U
B19: target 1 insC 3' of 9,insA 3' of 7 (mixed)
RNA 1: B1 RNA 1
RNA 2: B3 RNA 2 with G44C, C47A, G48C, A49G
B20: target 1 G5U,G12C (mixed)
RNA 1: B1 RNA 1
RNA 2: B1 RNA 2 with C33U, G40C, G46C, G47U
B21: target 1 insU 3' of 6,insG 3' of 3 (mixed)
RNA 1: B1 RNA 1
RNA 2: B3 RNA 2 with G44U, U45C, C47U, A49C, C50U, U51G
B22: target 1 insC 3' of 17,insG 3' of 14 (mixed)
RNA 1: B1 RNA 1
RNA 2: B14 RNA 2 with C32A, A33U, U34A, A35G, G36C, U42G, C44U
B23: target 1 A9C,U11C (mixed)
RNA 1: B1 RNA 1
RNA 2: B1 RNA 2 with C33U, U41C, A43C, G46C
B24: target 1 U3A,U10G (mixed)
RNA 1: B1 RNA 1
RNA 2: B1 RNA 2 with C33U, U42G, G46C, U49A
B25: target 2 MT 5'PFS UAU 3'PFS GCA (mixed)
RNA 1: CACCCGUGCAAAAUUGCAGGGGUCUAAAACCUUCUCCAAAUUGUUUCAUCCU
RNA 2: GGGAAUGGAUCCACAUCUACGAAUUCUAUAGGAUGAAACAAUUUGGAGAAGGCAAGAUCGGAAGAGCACACGU
B26: target 2 MT 5'PFS ACC 3'PFS CCG (mixed)
RNA 1: B25 RNA 1
RNA 2: B25 RNA 2 with U27A, A28C, U29C, G52C, A54G
B27: target 2 MT 5'PFS GGC 3'PFS UGC (mixed)
RNA 1: B25 RNA 1
RNA 2: B25 RNA 2 with U27G, A28G, U29C, G52U, C53G, A54C
B28: target 2 MT 5'PFS GUA 3'PFS AGU (mixed)
RNA 1: B25 RNA 1
RNA 2: B25 RNA 2 with U27G, A28U, U29A, G52A, C53G, A54U
B29: target 2 MT 5'PFS CGC 3'PFS UAA (mixed)
RNA 1: B25 RNA 1
RNA 2: B25 RNA 2 with U27C, A28G, U29C, G52U, C53A
B30: target 2 MT 5'PFS CUC 3'PFS ACU (mixed)
RNA 1: B25 RNA 1
RNA 2: B25 RNA 2 with U27C, A28U, U29C, G52A, A54U
B31: target 2 MT 5'PFS GCG 3'PFS UGU (mixed)
RNA 1: B25 RNA 1
RNA 2: B25 RNA 2 with U27G, A28C, U29G, G52U, C53G, A54U
B32: target 2 MT 5'PFS GUA 3'PFS AGA (mixed)
RNA 1: B25 RNA 1
RNA 2: B25 RNA 2 with U27G, A28U, U29A, G52A, C53G
B33: target 2 MT 5'PFS CGC 3'PFS UAC (mixed)
RNA 1: B25 RNA 1
RNA 2: B25 RNA 2 with U27C, A28G, U29C, G52U, C53A, A54C

Positions count from the first letter of the chain named. Names and notes keep the numbering of the source.

The term Kd denotes the free concentration of one partner at which half of the binding sites on the other are occupied at equilibrium, for simple one-to-one binding. Low readings indicate tighter binding, high ones weaker binding.

The target in this series is T1, EsCas13d, nuclease-dead. Description: crRNA (strand 1, pre-loaded); Mg2+; 40 mM Tris-HCl pH 7.5, 150 mM NaCl, 6 mM MgCl2, 1 mM DTT, 0.1% Tween-20, 0.2 mg/ml BSA; 25 C; 10 min per concentration, then washed. Particulars: tags: His6-TwinStrep-SUMO cleaved; N-terminal SNAP kept (SNAP-Surface 488); label: 3' end held by stalled T7 RNA polymerase.
With B1, the affinity, expressed as Kd, was 29.8 ± 2.8 nM.
The result for B2 reads 8.9 ± 0.7 nM.
The result for B3 reads 10.3 ± 1 nM.
The result for B4 reads 6.3 ± 0.9 nM.
B5: the dissociation constant Kd worked out at 8.1 ± 0.6 nM.
The result for B6 reads 9.8 ± 0.8 nM; that for B7, 7.8 ± 0.5 nM; that for B8, over 100 nM.
The value for B9 was 15.2 ± 1.8 nM; that for B10 was 15.2 ± 0.8 nM; that for B11 was 15 ± 1.2 nM.
The value for B12 was 30 ± 4 nM; that for B13 was 30.7 ± 1.9 nM; that for B14 was 41 ± 10 nM.
Molecule B15 showed a Kd of 35 ± 5 nM.
On to B16, for which binding was put at a Kd of 7.7 ± 0.4 nM. This Kd is about 4.5-fold lower than that of the molecule before.
The value for B17 was 35.9 ± 2.6 nM; that for B18 was 6.7 ± 0.4 nM; that for B19 was 10.4 ± 0.4 nM.
Turning to B20, binding was characterised by a dissociation constant (Kd) of 41 ± 4 nM.
Molecule B21 returned a Kd of 7.9 ± 0.4 nM.
The molecule B22 returned a Kd of 38 ± 4 nM.
The value for B23 was 20 ± 1.7 nM; that for B24 was 61 ± 16 nM.
The value for B25 was about 70 nM.
The value for B26 was 12 ± 5 nM; that for B27 was 13.2 ± 1.3 nM.
Regarding B28, the Kd came out at 12.4 ± 1.4 nM.
The result for B29 reads 3.9 ± 0.6 nM; that for B30, 2.14 ± 0.28 nM.
B31 yielded a Kd of 17.4 ± 2.1 nM. Against the preceding molecule, the Kd is about 8.1-fold higher.
The molecule B32 yielded a Kd of 6.5 ± 0.8 nM. This Kd lies about 2.7-fold lower than the previous one.
On to B33, for which binding was put at a Kd of 6.3 ± 0.8 nM.
